Target: CD19 on CD19+ cells (Raji, Nalm6) (human) (UniProt P15391)
Experiment: cell-based or functional assay

Chain of UniProt P15391 (P15391 20-556): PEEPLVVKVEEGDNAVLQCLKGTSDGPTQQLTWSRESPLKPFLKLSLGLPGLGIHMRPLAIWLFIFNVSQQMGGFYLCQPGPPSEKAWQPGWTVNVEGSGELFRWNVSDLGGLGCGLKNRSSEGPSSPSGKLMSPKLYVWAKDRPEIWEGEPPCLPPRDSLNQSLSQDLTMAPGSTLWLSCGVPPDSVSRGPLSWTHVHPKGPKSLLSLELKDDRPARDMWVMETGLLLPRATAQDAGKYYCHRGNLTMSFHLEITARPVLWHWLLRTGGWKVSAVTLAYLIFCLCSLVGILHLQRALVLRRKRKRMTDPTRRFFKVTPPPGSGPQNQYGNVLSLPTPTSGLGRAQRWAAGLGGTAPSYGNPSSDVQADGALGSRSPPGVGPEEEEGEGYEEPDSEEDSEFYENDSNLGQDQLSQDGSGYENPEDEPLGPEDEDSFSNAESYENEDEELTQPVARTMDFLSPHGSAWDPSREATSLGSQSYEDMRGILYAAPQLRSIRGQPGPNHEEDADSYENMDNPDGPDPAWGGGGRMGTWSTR

In the case of “non-signaling CD19 CAR FMC63-CD8h-CD28TMCo-noZ (IL15 co-expressed), on γδ T cells (from UniProt P01732 138-182; P10747 153-220)”, the cytotoxicity against CD19+ Nalm6 ALL cells (7-AAD/CFSE flow cytometry, E:T=0.25-4.0) (fold over non-transduced control) is reported as 1.5.
